Bridge positions count the residues as written; N and C are the ends.
Biological target: KDR on human umbilical vein endothelial cells (HUVECs) (human, UniProt P35968 20-1356)
Assay: cell-based or functional assay

KDR on human umbilical vein endothelial cells (HUVECs), sequence (P35968 20-1356): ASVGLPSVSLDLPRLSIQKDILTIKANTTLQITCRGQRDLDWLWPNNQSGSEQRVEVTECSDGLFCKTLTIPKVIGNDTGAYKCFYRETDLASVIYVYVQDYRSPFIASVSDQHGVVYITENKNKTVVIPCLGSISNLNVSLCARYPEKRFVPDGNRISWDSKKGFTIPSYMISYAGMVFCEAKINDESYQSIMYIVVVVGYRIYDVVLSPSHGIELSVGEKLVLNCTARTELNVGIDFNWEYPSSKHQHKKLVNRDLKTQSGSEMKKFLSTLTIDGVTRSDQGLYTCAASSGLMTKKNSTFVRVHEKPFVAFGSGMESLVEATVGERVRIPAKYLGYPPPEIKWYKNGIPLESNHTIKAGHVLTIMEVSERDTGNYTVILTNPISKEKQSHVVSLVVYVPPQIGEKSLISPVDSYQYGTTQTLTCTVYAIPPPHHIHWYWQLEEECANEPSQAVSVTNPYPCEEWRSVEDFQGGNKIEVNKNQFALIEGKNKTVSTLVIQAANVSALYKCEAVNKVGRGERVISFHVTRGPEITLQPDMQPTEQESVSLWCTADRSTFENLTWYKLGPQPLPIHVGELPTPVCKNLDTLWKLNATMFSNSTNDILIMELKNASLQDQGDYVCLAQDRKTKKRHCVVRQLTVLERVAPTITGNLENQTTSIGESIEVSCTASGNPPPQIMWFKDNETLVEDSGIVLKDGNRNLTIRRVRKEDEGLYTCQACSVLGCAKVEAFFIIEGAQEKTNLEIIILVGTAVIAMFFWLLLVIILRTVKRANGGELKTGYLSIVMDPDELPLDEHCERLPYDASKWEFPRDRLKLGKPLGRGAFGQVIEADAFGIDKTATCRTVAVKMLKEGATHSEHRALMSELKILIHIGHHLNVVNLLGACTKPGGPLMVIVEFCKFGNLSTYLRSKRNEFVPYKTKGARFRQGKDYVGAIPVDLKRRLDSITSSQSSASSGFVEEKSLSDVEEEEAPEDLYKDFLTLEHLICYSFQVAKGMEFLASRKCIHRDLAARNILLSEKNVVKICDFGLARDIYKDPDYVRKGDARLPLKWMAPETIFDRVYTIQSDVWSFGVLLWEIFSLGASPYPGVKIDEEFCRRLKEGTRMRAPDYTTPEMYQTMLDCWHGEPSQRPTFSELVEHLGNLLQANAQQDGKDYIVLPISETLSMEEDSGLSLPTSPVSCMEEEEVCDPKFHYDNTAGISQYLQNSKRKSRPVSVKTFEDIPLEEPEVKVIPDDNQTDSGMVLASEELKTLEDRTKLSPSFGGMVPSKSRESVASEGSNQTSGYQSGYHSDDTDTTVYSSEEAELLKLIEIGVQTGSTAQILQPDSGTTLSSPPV

VEGF-induced KDR phosphorylation in HUVECs (immunoblot) [% inhibition at 10 µM] | Binder
≥ 50 | Ac-AGWIECYHPDGICYHFGTGGGK-NH2 (disulfide 6-13 (inferred); also: fluorescein on C-terminal Lys in anisotropy assay only) [SEQ ID NO:269]
≥ 50 | Ac-GDSRVCWEDSWGGEVCFRYDPGGGK-NH2 (disulfide 6-16 (inferred); also: fluorescein on C-terminal Lys in anisotropy assay only) [SEQ ID NO:294]

Reference: patent publication US20140161732A1 (published 2014)
